{
  "source": "patent US20240252637A1",
  "molecular_target": "CD19 on Namalwa cells (UniProt P15391)",
  "sequence (P15391 20-556 limits assumed)": "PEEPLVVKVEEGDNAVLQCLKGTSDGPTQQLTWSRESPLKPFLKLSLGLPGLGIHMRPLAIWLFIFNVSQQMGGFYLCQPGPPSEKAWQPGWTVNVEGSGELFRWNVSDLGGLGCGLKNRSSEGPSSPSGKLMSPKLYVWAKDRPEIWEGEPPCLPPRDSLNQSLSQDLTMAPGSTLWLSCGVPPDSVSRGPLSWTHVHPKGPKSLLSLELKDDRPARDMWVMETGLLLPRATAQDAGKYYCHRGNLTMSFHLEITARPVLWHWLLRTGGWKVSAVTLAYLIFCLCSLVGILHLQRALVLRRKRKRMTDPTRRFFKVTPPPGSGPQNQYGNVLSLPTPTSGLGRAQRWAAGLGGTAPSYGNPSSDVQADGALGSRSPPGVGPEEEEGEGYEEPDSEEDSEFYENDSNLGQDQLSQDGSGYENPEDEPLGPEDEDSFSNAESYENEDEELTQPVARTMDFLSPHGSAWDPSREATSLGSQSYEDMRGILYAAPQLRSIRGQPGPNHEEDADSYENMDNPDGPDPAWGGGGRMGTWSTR",
  "experiment": "cell-based or functional assay",
  "data": [
    {"substance": "CD19-CAR (third generation anti-CD19 chimeric antigen receptor, from the lenti-EF1-CD19-3rd-CAR-eGFt plasmid, Creative Biolabs) on the surface of exosomes from CAR-T cells", "values": [
      {"measurement": "Co-culture killing assay; decrease of CD19+ cells incubated with EXO-CD19-CAR", "value": 60, "unit": "%"},
      {"measurement": "Cytotoxicity assay of EXO-CAR-T against tumor cells (Namalwa); CD19+ cells eliminated at 150 µg/mL EXO-CAR-T", "value": 70, "unit": "%"}
    ]}
  ]
}
